Laboratory results from publication PMC7846560, “A promiscuous ancestral enzyme´s structure unveils protein variable regions of the highly diverse metallo-β-lactamase family” (Communications Biology, 2021).

Substrate: O=[N+]([O-])c1ccc(OP(=O)(O)Oc2ccc([N+](=O)[O-])cc2)cc1
Assay: purified protein
Assay type: biochemical, Ignicoccus hospitalis
Conditions: pH 8, 90 °C, Ni2+ is the required metal (optimal metal conditions)

B1: Igni18 (Ignicoccus hospitalis KIN4/I) (protein)
chain: MTTVKLTYFGHSAFHVEVDGVGIAIDPWITNPLSKTTLEDYLKNFKTDLVVITHAHEDHIGDALEIMRRTGAKFFSIHEIYVDLTQKGFQGIGANIGGPAKLDDVAPGLGIALTPATHSSYDKGVPTGAIIFKDGKALVYHAGDTGLFAEMQFIGELYAPKVALLPIGGHYTMDIEQALLATKLLRPEVVVPMHYNTFPPIRADPNEFKQKVESAGLAKVRVMEPGETVTFEF
notes: homotrimer; 233 protein residues in the structure
Km: 2.5 µM
kcat: 6.72e-05 s⁻¹
